Here are results for seven molecules from patent US20230192789A1, “STRUCTURALLY-STABILIZED AND HDMX-SELECTIVE P53 PEPTIDES AND USES THEREOF” (Dana-Farber Cancer Institute, Inc., priority 2020, published 2023).

Entries after “also recorded” stand apart in the source; their conditions may differ. Bridges are numbered along the chain shown (N, C = ends). Where no end group is shown, it is not given here. [ ]: non-standard residue; d: D form. The star is where a group is joined. Biotin = O=C1N[C@H]2[C@H](CS[C@H]2CCCCC(=O)*)N1; R8 = C=CCCCCCC[C@@](C)(N)C(=O)O; S5 = C=CCCC[C@](C)(N)C(=O)O

One data set has as its system EOL-1 cancer cells. Description: Cell viability, EOL-1. The conditions noted are these: EOL-1, 48 and 72 hours of treatment, acetylated stapled peptide.
A further data set deals with EOL-1 cells. Description: LDH release assay, EOL-1. Format: cell-based. The conditions noted are these: EOL-1, 90 minutes after peptide treatment, highest dosing level. Here is the method: (§1) LDH release assay: To assess the release of lactate dehydrogenase (LDH) upon treatment with a structurally-stabilized peptide described herein, an LDH release assay can be used. Cultured cells, including, e.g., cancer cells and HUVEC cells, are plated in 96-well format (2x10^4 cells per well; including overnight incubation for adherent cells) and then treated with serial dilutions of structurally-stabilized peptides in a final volume of 100 µL and incubated at 37° C. for the indicated time period (e.g., 90 minutes). The plates are spun down at 1500 rpm for 5 minutes at 4° C., and 80 µL of cell culture media is transferred to a clear plate (Corning), incubated with 80 µL of LDH reagent (Roche) for 15 minutes while shaking, and absorbance is measured at 490 nm on a microplate reader (SpectraMax M5 Microplate Reader, Molecular Devices).
(§2) LDHRelease Assay: OCI-AML2 cells (1 × 10^4 cells/well) were plated in 96-well plates and treated with the indicated peptides or vehicle (0.2% DMSO). After 1.5 hours incubation at 37° C., 100 µl of cell medium was transferred to a 96-well clear plate and incubated with 100 µl of LDH reagent (Roche) for 25 minutes while shaking, and absorbance at 490 nm measured on a microplate reader (SpectraMax M5 Microplate Reader, Molecular Devices).
For orientation: LDH leaks from cells whose membrane has failed.

Data set [1] addresses T1, recombinant HDMX (amino acids 1-490 of SEQ ID NO:104) (Homo sapiens, UniProt O15151).
T1 construct: thioredoxin (N, cleaved yes); S tag (N, cleaved yes); hexahistidine (N, cleaved yes); made in house; host or cells: E. coli (inferred: pET32-LIC vector, handled as described for HDM2 in BL21(DE3))
T1 sequence (O15151 1-490): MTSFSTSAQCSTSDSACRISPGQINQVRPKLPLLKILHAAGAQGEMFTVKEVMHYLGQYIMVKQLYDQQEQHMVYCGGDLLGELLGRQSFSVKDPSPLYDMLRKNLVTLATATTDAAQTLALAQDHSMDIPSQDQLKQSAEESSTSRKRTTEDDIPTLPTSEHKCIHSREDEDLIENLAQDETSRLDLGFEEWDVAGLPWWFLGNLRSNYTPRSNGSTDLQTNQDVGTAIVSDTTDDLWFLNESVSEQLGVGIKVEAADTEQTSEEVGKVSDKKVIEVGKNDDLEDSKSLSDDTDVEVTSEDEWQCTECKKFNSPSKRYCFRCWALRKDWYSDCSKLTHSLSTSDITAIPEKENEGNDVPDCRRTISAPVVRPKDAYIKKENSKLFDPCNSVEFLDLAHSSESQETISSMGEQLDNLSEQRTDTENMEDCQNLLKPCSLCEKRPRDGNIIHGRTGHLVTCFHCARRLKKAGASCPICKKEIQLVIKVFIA
Description: Competitive streptavidin pull-down of biotinylated peptides with 1:1 recombinant HDM2/HDMX mixture, HDMX western. Format: binding. Conditions: biotinylated stapled peptide, 1:1 mixture of recombinant HDM2 and HDMX.

Data set [2] relates to OCI-AML2 cells. Description: Cell viability (CellTiter-Glo), OCI-AML2. Conditions: OCI-AML2, 48 and 72 hours of treatment, acetylated stapled peptide.
For data set [3], the system named is OCI-AML2 cells. In words: LDH release assay, OCI-AML2. The format is cell-based. The conditions noted are these: OCI-AML2, 90 minutes after peptide treatment, highest dosing level. Here is the method:
as §1, §2

The next data set addresses T2, native HDMX (Homo sapiens, UniProt O15151).
T2 construct: high fidelity selectivity for native HDMX from cells; endogenous in cells; host or cells: EOL-1 and OCI-AML2 lysates (endogenous); SJSA-X lysates (cells engineered to express HDMX)
T2 sequence (O15151 1-490): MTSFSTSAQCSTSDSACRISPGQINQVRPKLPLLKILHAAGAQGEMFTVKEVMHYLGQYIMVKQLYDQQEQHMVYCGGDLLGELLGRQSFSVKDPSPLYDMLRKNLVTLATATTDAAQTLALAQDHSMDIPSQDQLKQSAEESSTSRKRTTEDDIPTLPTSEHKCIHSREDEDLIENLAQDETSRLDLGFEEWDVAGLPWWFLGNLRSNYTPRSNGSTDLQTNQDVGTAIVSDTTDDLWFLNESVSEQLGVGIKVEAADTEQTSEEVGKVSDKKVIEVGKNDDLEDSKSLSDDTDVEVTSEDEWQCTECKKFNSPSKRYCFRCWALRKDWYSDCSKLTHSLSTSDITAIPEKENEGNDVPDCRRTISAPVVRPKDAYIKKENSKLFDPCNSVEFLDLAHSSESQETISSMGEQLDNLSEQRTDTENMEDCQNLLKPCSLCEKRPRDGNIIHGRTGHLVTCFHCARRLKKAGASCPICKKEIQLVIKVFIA
In words: Streptavidin pull-down from cancer cell lysates, HDMX western. The format is binding. Here is the method:
(§3) In order to determine if the insights gleaned from the biochemical and structural analyses (Examples 1 and 2, above) informed the development of a stapled p53 peptide with high fidelity selectivity for native HDMX from cells, binding assays were performed using cellular lysates from both hematologic (FIG. 16A) and solid (FIG. 16B) cancers.
(§4) Streptavidin Pull-Down - Cell Lysates: Cultured cells were trypsinized, washed once with cold PBS, and lysed on ice for 30 minutes in lysis buffer (0.5% NP-40, 150 mM NaCl, 50 mM Tris pH 7.4). Protein concentration of the isolated supernatant was determined by Bradford reagent. Lysate samples (2 mg) were incubated with vehicle (0.6% DMSO) or biotinylated peptides (15 nmole) overnight in lysis buffer at 4° C. […] Bead-bound proteins were eluted by addition of 50 µl 2x LDS supplemented with DTT and boiling for 10 minutes. Eluted proteins were then subjected to electrophoresis and western blotting using HDM2 (IF2, EMD Millipore, 1:200) and MDM4 (A300-287A; Bethyl Laboratories, 1:1000) antibodies.

A further data set has as its target T3, native HDM2 (Homo sapiens, UniProt Q00987).
T3 construct: in the context of the native proteins from cancer cell lysates; endogenous in cells; host or cells: EOL-1, OCI-AML2, SJSA-X cell lysates
Description: Streptavidin pull-down from cancer cell lysates, HDM2 western. The format is binding. Here is the method: as §3, §4

The subject of data set [4] is wild-type, Y99F, and Y99A HDMX (full-length). In words: Streptavidin pull-down with wild-type, Y99F and Y99A HDMX proteins. The conditions noted are these: biotinylated peptide, full-length HDMX proteins incubated individually, HDMX western.
Description: The peptide-protein complex was then incubated with pre-blocked (3% BSA, 2 hours, 4° C.) and equilibrated high-capacity Streptavidin agarose beads (30 µl per pull-down) for 2 hours at 4° C. The beads were washed three times each with 1% NP-40/FPLC buffer, T-BST and PBS. Bound protein was eluted from the beads by 10 minutes of boiling in 2x LDS supplemented with DTT, and then subjected to electrophoresis (input 10%, eluates 10 µL, 4-12% or 10% Bis-Tris gel) and western blot analysis. For comparative HDMX protein pull-downs, wild-type, Y99A, and Y99F HDMX proteins were individually incubated with biotinylated peptides and streptavidin pull-downs performed as above.
Data set [5] addresses T4, recombinant HDM2 (amino acids 17-125 of SEQ ID NO:103) (human, UniProt Q00987 17-125).
T4 construct: also called MDM2; not shown: thrombin cleavage site (pET28a vector)
In words: fluorescence polarization, FITC-labelled peptide titrated with HDM2. (In general: In fluorescence polarisation assays a small probe gives low polarisation when free and higher when bound to something large.)

The target of data set [6] is T4, recombinant HDM2 (amino acids 17-125 of …). Description: isothermal titration calorimetry, peptide titrated into HDM2. On the technique in general: In ITC the heat of successive injections is recorded.
Data set [7] has the same target. The data set is described as above. The source holds these as a separate data set.
Data set [8] has the same target. In words: streptavidin pull-down of biotinylated peptide with recombinant HDM2 and HDMX (1:1 mixture per paragraph 301), western blot.
[9] abbreviates: EOL-1, OCI-AML2, and SJSA-X cancer cell lysates.
Setting [10] is: EOL-1 and OCI-AML2 leukemia cell lysates, biotinylated peptide.
The mark [11] stands for this setting: SJSA-X osteosarcoma cell lysates, biotinylated peptide.

T3 sequence (Q00987 whole entry): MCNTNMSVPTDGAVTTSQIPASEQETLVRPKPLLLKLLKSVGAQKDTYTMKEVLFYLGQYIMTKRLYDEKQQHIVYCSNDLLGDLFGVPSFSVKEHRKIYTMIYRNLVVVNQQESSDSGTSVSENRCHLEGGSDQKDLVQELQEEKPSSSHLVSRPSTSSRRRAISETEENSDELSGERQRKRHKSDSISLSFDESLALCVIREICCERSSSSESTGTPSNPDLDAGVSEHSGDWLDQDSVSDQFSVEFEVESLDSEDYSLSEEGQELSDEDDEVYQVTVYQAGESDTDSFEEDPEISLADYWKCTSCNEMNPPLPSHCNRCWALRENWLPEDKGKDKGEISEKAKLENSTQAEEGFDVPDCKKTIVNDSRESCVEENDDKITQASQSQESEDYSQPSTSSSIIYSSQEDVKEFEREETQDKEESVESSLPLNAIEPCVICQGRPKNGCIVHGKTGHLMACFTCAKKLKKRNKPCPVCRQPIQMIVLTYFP
T4 sequence (Q00987 other isoform, or with tags, fused parts or gaps): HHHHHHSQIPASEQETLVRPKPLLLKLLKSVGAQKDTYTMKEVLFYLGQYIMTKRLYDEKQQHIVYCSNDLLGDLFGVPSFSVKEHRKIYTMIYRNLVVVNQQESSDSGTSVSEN

Turning to `COC(=O)CC[C@@H]1NC(=O)[C@H](CCC(N)=O)NC(=O)[C@H](C)NC(=O)[C@H](Cc2c[nH]c3ccccc23)NC(=O)[C@H](Cc2ccc(O)cc2)NC(=O)[C@H](CCC(=O)O)NC(=O)[C@](C)(NC(=O)[C@H](Cc2ccccc2)NC(=O)[C@@H](NC(=O)[C@H](CC(C)C)NC(C)=O)[C@@H](C)O)CCCCCCC=CCCC[C@@](C)(C(=O)N[C@@H](CO)C(=O)N[C@@H](C)C(=O)N[C@@H](C)C(N)=O)NC1=O` [ATSP-7041 B26E(OMe), LTF8EYWAQ#XSAA], the cancer cell cytotoxicity result with EOL-1 cancer cells and with OCI-AML2 cells [2] was “dose-responsive cancer cell cytotoxicity; also recorded: enhance killing activity” throughout. For the same molecule, the “non-specific membrane disruption (LDH release)” value in the data set with EOL-1 cells and with OCI-AML2 cells [3] was “no non-specific membrane disruptive activity” each time. Moreover, in data set [1], the “HDMX versus HDM2 binding selectivity” value is “selectivity to HDMX”.
For “QSQQTF8NLWRLEXQN (QSQQTF[R8]NLWRLE[S5]QN; staple 7-14) [SAH-p53-8 L26E]”, in [1], the HDMX interaction result is reported as “robust HDMX-binding activity”. Further, in data set [1], the “HDMX versus HDM2 binding selectivity” value is recorded as “exquisite binding selectivity for HDMX; also recorded: HDMX-selective”. In addition, the entries for the “native HDMX binding” value in the data set with native HDMX (setting [9]), with native HDMX (setting [10]) and in the data set with native HDMX (setting [11]) were “preserved”, “selective interaction with HDMX” and “predominant HDMX interaction”, respectively. The “native HDM2 binding” value with native HDM2 (setting [9]) is given as “markedly impaired or abrogated”; in the data set with native HDM2 (setting [10]), “abrogates HDM2 binding”; in the data set with native HDM2 (setting [11]), “impairs HDM2 interaction”. In data set [4], the “interaction with Y99F and Y99A HDMX” value is recorded as “significantly impaired; also recorded: markedly impair interaction”.
In the case of “QSQQTF8NLWRLLXQN [SAH-p53-8, reference compound]”, the “HDMX versus HDM2 binding selectivity” value in data set [1] is “dual-targeting HDM2/HDMX”. Also, the “native HDMX binding” value with native HDMX (setting [9]) is “effectively engaged”; with native HDMX (setting [10]) it was “binds”; with native HDMX (setting [11]), “binds”. Moreover, the “native HDM2 binding” value was “effectively engaged” with native HDM2 (setting [9]), “binds” in the data set with native HDM2 (setting [10]) and “binds” with native HDM2 (setting [11]). The “interaction with Y99F and Y99A HDMX” value in data set [4] is “retained interaction; also recorded: effectively bind”.
As to `CC(=O)N[C@@H](CC(C)C)C(=O)N[C@H](C(=O)N[C@@H](Cc1ccccc1)C(=O)N[C@]1(C)CCCCCCC=CCCC[C@@](C)(C(=O)N[C@@H](CO)C(=O)N[C@@H](C)C(=O)N[C@@H](C)C(N)=O)NC(=O)[C@H](CCC(=O)O)NC(=O)[C@H](CCC(N)=O)NC(=O)[C@H](C)NC(=O)[C@H](Cc2c[nH]c3ccccc23)NC(=O)[C@H](Cc2ccc(O)cc2)NC(=O)[C@H](CCC(=O)O)NC1=O)[C@@H](C)O` [ATSP-7041 B26E, LTF8EYWAQEXSAA], the “non-specific membrane disruption (LDH release)” value in the data set with EOL-1 cells and with OCI-AML2 cells [3] was “no non-specific membrane disruptive activity” in each case.

B1: SAH-p53-4 (peptide)
peptide: LSQETF[R8]DLWKLL[S5]EN
modifications: staple 7-14; also: N-terminus biotin, acetyl or FITC depending on assay
notes: One entry for the peptide; also called wild-type SAH-p53-4; LSQETF8DLWKLLXEN
Turning to B1, the figures for the Kd in data set [5] and in [6] were 12 nM and 20.4 nM, respectively.
For the molecule LSQETF[R8]DLWKLE[S5]EN (staple 7-14; also: N-terminus biotin, acetyl or FITC depending on assay) [SAH-p53-4 L26E], the Kd in data set [7] came out at 256 nM; in data set [5] it was 149 nM.
In the case of Biotin-QSQQTF[R8]NLWRLE[S5]QN-NH2 (staple 7-14, also called QSQQTF8NLWRLEXQN) [SAH-p53-8 L26E], the binding result in data set [8] was “no binding”.

As a reminder, the Kd is the equilibrium constant for the complex coming apart.
